# Results: US20140356383A1 (published 2014)
# B1: 5F9 vcMMAE immunoconjugate (antibody, V domains shown)
# VH: QVQLQQWGAGLLKPSETLSLTCAVFGGSFSGYYWSWIRQPPGKGLEWIGEINHRGNTNDNPSLKSRVTISVDTSKNQFALKLSSVTAADTAVYYCARERGYTYGNFDHWGQGTLVTVSS
# VL: EIVMTQSPATLSVSPGERATLSCRASQSVSRNLAWYQQKPGQAPRLLIYGASTRATGIPARFSGSGSGTEFTLTIGSLQSEDFAVYYCQQYKTWPRTFGQGTNVEIK
# modifications: mc-vc-MMAE linked to cysteines freed by partial reduction of interchain disulfides (outside this variable domain); average drug loading about 4 (3.6 in the described preparation)
# notes: also called MLN0264; ML0264
# B2: 5F9-vc-MMAF (antibody, V domains shown)
# VH: B1 VH
# VL: B1 VL
# modifications: mc-vc-MMAF linked to cysteines freed by partial reduction of interchain disulfides (outside this variable domain); average drug loading about four
# B3: anti-GCC human monoclonal antibody 5F9 (antibody, V domains shown)
# VH: B1 VH
# VL: B1 VL
# notes: also called mAb 5F9; MAb 5F9 (Prep A)
# B4: 5F9-mc-MMAF (antibody, V domains shown)
# VH: B1 VH
# VL: B1 VL
# modifications: mc-MMAF (non-cleavable linker) linked to cysteines freed by partial reduction of interchain disulfides (outside this variable domain); average drug loading about four
# Assays:
# [1] = biological target: T1, human guanylyl cyclase C (GCC) (human, UniProt P25092 24-1073); assay: cell-based or functional assay
# T1 sequence (P25092 24-1073 limits assumed): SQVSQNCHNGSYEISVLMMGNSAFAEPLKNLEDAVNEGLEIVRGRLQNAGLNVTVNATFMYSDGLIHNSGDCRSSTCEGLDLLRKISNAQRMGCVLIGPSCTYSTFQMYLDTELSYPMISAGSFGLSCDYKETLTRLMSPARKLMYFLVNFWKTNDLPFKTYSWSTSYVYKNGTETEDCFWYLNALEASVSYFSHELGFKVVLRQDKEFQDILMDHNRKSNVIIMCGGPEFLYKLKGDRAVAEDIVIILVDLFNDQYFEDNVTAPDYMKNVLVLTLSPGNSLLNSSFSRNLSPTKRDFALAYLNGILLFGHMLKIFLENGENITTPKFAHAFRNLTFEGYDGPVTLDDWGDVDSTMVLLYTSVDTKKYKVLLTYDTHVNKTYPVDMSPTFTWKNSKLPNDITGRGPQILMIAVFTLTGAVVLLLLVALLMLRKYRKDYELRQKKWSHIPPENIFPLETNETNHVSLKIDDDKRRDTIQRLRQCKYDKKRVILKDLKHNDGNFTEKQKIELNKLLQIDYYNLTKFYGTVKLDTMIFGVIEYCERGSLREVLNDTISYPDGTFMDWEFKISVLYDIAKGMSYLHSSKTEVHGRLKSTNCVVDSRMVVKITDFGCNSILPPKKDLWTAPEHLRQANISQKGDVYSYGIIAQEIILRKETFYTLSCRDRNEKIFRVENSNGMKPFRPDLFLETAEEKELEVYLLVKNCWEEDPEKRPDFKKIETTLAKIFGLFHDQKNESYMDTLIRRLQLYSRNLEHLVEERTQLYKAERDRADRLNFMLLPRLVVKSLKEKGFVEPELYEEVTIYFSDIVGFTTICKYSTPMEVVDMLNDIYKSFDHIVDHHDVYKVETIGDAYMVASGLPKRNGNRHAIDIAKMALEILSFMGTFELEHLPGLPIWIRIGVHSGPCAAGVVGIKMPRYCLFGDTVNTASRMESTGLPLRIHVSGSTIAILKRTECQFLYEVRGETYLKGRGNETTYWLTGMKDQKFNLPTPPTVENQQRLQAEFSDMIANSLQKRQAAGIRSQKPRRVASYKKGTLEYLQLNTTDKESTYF
# [2] = biological target: T1, human guanylyl cyclase C (GCC); assay: flow cytometry, 293 GCC #2 cells, 1 µg/ml
# [3] = biological target: T1, human guanylyl cyclase C (GCC); assay: flow cytometry, 293 GCC #2 cells, 0.25 µg/ml
# [4] = biological target: T1, human guanylyl cyclase C (GCC); assay: flow cytometry, 293 GCC #2 cells, 0.001 µg/ml
# [5] = biological target: T1, human guanylyl cyclase C (GCC); assay: flow cytometry, 293 GCC #2 cells, 0.004 µg/ml
# [6] = biological target: T1, human guanylyl cyclase C (GCC); assay: flow cytometry, 293 GCC #2 cells, 0.016 µg/ml
# [7] = biological target: T1, human guanylyl cyclase C (GCC); assay: flow cytometry, 293 GCC #2 cells, 0.063 µg/ml
# [8] = biological target: T2, TOK107-hIg (hGCC-ECD/hIgG1 Fc) (human); assay: ELISA against TOK107-hIg; antibody concentration for half maximal binding
# T2 construct: Expressed in HEK293 cells; also called TOK107-hIgG; TOK107-Ig
# T2 sequence (chain, as listed by the source limits assumed): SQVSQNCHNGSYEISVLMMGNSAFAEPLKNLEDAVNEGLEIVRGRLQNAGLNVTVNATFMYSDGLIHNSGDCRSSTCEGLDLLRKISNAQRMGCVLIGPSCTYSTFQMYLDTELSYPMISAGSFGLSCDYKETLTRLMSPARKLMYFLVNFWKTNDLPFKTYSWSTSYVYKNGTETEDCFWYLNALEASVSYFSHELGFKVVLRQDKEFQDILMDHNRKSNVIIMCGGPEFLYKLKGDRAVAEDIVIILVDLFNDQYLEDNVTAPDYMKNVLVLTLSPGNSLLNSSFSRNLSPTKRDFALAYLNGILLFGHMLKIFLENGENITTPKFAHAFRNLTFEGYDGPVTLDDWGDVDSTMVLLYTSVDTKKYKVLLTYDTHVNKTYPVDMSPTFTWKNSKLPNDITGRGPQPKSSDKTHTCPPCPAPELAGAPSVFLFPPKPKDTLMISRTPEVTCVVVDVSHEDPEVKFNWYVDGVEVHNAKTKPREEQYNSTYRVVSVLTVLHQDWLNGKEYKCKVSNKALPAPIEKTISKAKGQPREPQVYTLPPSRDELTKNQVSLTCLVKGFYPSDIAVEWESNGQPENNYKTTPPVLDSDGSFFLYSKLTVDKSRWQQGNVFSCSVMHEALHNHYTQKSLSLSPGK
# [9] = biological target: T1, human guanylyl cyclase C (GCC); assay: FACS with GCC-expressing cells (cell line not given); antibody concentration for half maximal binding
# [10] = biological target: T2, TOK107-hIg (hGCC-ECD/hIgG1 Fc); assay: SPR, BIACORE T100, 22 C; Prep A 5F9 immobilized on CM4 chip, GCC-ECD-Fc injected; 1:1 model; replicate A
# [11] = biological target: T2, TOK107-hIg (hGCC-ECD/hIgG1 Fc); assay: SPR, BIACORE T100, 22 C; Prep A 5F9 immobilized on CM4 chip, GCC-ECD-Fc injected; 1:1 model; replicate B
# [12] = biological target: T2, TOK107-hIg (hGCC-ECD/hIgG1 Fc); assay: SPR, BIACORE T100, 22 C; Prep A 5F9 immobilized on CM4 chip, GCC-ECD-Fc injected; 1:1 model; replicate C
# [13] = biological target: T2, TOK107-hIg (hGCC-ECD/hIgG1 Fc); assay: SPR, BIACORE T100, 22 C; Prep A 5F9 immobilized on CM4 chip, GCC-ECD-Fc injected; 1:1 model; replicate D
# [14] = biological target: T2, TOK107-hIg (hGCC-ECD/hIgG1 Fc); assay: SPR, BIACORE T100, 22 C; Prep A 5F9 immobilized on CM4 chip, GCC-ECD-Fc injected; 1:1 model; replicate E
# [15] = biological target: T2, TOK107-hIg (hGCC-ECD/hIgG1 Fc); assay: SPR, BIACORE T100, 22 C; Prep B (reference) 5F9 immobilized on CM4 chip, GCC-ECD-Fc injected; 1:1 model; replicate F
# [16] = biological target: T2, TOK107-hIg (hGCC-ECD/hIgG1 Fc); assay: SPR, BIACORE T100, 22 C; Prep B (reference) 5F9 immobilized on CM4 chip, GCC-ECD-Fc injected; 1:1 model; replicate G
# [17] = biological target: T2, TOK107-hIg (hGCC-ECD/hIgG1 Fc); assay: SPR, BIACORE T100, 22 C; Prep B (reference) 5F9 immobilized on CM4 chip, GCC-ECD-Fc injected; 1:1 model; replicate H
# [18] = biological target: T2, TOK107-hIg (hGCC-ECD/hIgG1 Fc); assay: SPR, BIACORE T100, 22 C; Prep B (reference) 5F9 immobilized on CM4 chip, GCC-ECD-Fc injected; 1:1 model; replicate I
# [19] = biological target: T2, TOK107-hIg (hGCC-ECD/hIgG1 Fc); assay: SPR, BIACORE T100, 22 C; Prep A 5F9 immobilized, GCC-ECD-Fc injected; average of replicates A-E (95% confidence interval in brackets)
# [20] = biological target: T2, TOK107-hIg (hGCC-ECD/hIgG1 Fc); assay: SPR, BIACORE T100, 22 C; Prep B (reference) 5F9 immobilized, GCC-ECD-Fc injected; average of replicates F-I (95% confidence interval in brackets)
binder,measurement,setting,value
B1,"LD 50 (nM), direct cytotoxicity, CT 26 GCC #2.5 cells",[1],> 500 nM
same,"LD 50 (nM), direct cytotoxicity, CT 26 GCC #32 cells",[1],267 nM
same,"LD 50 (nM), direct cytotoxicity, HT 29 GCC #2 cells",[1],24.1 nM
same,"LD 50 (nM), direct cytotoxicity, HT 29 GCC #5 cells",[1],654 nM
same,"LD 50 (nM), direct cytotoxicity, HT 29 GCC #18 cells",[1],555 nM
same,"LD 50 (nM), direct cytotoxicity, HT29 GCC#5 cells",[1],0.59 nM
same,MFI,[2],7420
same,MFI,[3],7300
same,MFI,[4],445
same,MFI,[5],696
same,MFI,[6],1790
same,MFI,[7],4850
B2,"LD 50 (nM), direct cytotoxicity, CT 26 GCC #2.5 cells",[1],> 10 nM
same,"LD 50 (nM), direct cytotoxicity, CT 26 GCC #32 cells",[1],0.004 nM
same,"LD 50 (nM), direct cytotoxicity, HT 29 GCC #2 cells",[1],0.127 nM
same,"LD 50 (nM), direct cytotoxicity, HT 29 GCC #5 cells",[1],563 nM
same,"LD 50 (nM), direct cytotoxicity, HT 29 GCC #18 cells",[1],> 10000 nM
same,MFI,[2],7780
same,MFI,[3],7560
same,MFI,[4],440
same,MFI,[5],707
same,MFI,[6],1500
same,MFI,[7],4830
B3,MFI,[2],8030
same,MFI,[3],7820
same,MFI,[4],500
same,MFI,[5],937
same,MFI,[6],2460
same,MFI,[7],6620
same,EC50,[8],36.5 nM
same,EC50,[9],1.24 nM
same,Kd,[10],0.112 nM
same,koff,[10],1.19e-05 s⁻¹
same,kon,[10],106000 M⁻¹ s⁻¹
same,Kd,[11],0.0917 nM
same,koff,[11],1.1e-05 s⁻¹
same,kon,[11],120000 M⁻¹ s⁻¹
same,Kd,[12],0.201 nM
same,koff,[12],2.15e-05 s⁻¹
same,kon,[12],107000 M⁻¹ s⁻¹
same,Kd,[13],0.091 nM
same,koff,[13],1.11e-05 s⁻¹
same,kon,[13],122000 M⁻¹ s⁻¹
same,Kd,[14],0.184 nM
same,koff,[14],1.77e-05 s⁻¹
same,kon,[14],96400 M⁻¹ s⁻¹
same,Kd,[15],0.0789 nM
same,koff,[15],7.64e-06 s⁻¹
same,kon,[15],96800 M⁻¹ s⁻¹
same,Kd,[16],0.103 nM
same,koff,[16],1.24e-05 s⁻¹
same,kon,[16],120000 M⁻¹ s⁻¹
same,Kd,[17],0.105 nM
same,koff,[17],9.57e-06 s⁻¹
same,kon,[17],90900 M⁻¹ s⁻¹
same,Kd,[18],0.127 nM
same,koff,[18],1.54e-05 s⁻¹
same,kon,[18],121000 M⁻¹ s⁻¹
same,Kd,[19],0.136 nM
same,koff,[19],1.46e-05 s⁻¹
same,kon,[19],110000 M⁻¹ s⁻¹
same,Kd,[20],0.103 nM
same,koff,[20],1.13e-05 s⁻¹
same,kon,[20],107000 M⁻¹ s⁻¹
B4,"LD 50 (nM), direct cytotoxicity, CT 26 GCC #2.5 cells",[1],> 10 nM
same,"LD 50 (nM), direct cytotoxicity, CT 26 GCC #32 cells",[1],0.064 nM
same,"LD 50 (nM), direct cytotoxicity, HT 29 GCC #2 cells",[1],3.1 nM
same,"LD 50 (nM), direct cytotoxicity, HT 29 GCC #5 cells",[1],> 10000 nM
same,"LD 50 (nM), direct cytotoxicity, HT 29 GCC #18 cells",[1],> 10000 nM
same,"LD 50 (nM), direct cytotoxicity, HT29 GCC#5 cells",[1],> 10 nM
same,MFI,[2],7580
same,MFI,[3],7400
same,MFI,[4],483
same,MFI,[5],776
same,MFI,[6],2110
same,MFI,[7],5350
